{
  "source": "paper PMC10176505",
  "about": "“PYK-SubstitutionOME: an integrated database containing allosteric coupling, ligand affinity and mutational, structural, pathological, bioinformatic and computational information about pyruvate kinase isozymes” (Database: The Journal of Biological Databases and Curation, 2023)",
  "system": "T1, C=C(OP(=O)(O)O)C(=O)O",
  "T1 construct": "full-length liver isozyme; homotetramer; purified or partially purified",
  "assay": "enzyme kinetics, PEP concentration at half Vmax",
  "assay_type": "biochemical, Homo sapiens",
  "conditions": "no allosteric effector; apparent affinity (not an association constant)",
  "from_the_text": "enzyme kinetics, PEP concentration at half Vmax on hLPYK | Ka-PEP (the kinetic equivalent to Kia-PEP), the apparent affinity for PEP",
  "data": [
    {"substance": "hLPYK (Homo sapiens)", "values": [
      {"measurement": "K0.5", "value": 0.22, "unit": "mM"}
    ]}
  ]
}
